Consider one molecule from patent US20180355046A1 (Boehringer Ingelheim, published 2018).

In this test the target is human TrkB receptor on cells (human, UniProt Q16620 32-822). As to the kind of experiment: cell-based or functional assay.
human TrkB receptor on cells, sequence (Q16620 32-822): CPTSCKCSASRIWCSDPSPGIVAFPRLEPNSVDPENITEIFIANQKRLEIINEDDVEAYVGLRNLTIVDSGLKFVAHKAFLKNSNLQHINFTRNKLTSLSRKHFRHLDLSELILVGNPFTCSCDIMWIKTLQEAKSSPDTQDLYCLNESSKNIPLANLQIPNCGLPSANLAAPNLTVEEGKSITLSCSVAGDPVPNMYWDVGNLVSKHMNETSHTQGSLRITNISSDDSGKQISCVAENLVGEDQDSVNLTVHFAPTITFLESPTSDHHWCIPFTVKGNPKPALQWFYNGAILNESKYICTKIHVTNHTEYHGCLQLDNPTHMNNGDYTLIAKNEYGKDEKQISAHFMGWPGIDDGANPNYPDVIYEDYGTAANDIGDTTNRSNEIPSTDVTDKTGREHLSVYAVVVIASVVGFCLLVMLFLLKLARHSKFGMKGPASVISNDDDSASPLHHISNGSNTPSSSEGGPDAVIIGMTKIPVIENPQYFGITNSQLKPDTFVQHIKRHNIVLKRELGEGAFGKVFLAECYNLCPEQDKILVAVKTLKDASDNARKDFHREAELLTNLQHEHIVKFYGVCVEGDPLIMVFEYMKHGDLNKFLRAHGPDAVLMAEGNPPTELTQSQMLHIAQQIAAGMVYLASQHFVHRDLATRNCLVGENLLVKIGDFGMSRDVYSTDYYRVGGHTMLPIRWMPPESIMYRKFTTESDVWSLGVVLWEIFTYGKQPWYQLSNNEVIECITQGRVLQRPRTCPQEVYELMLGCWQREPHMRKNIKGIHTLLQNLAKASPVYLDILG

B1: brain-derived neurotrophic factor (BDNF) (ligand, UniProt P23560 129-247, looked up)
chain: HSDPARRGELSVCDSISEWVTAADKKTAVDMSGGTVTVLEKVPVSKGQLKQYFYETKCNPMGYTKEGCRGIDKRHWNSQCRTTQSYVRALTMDSKKRIGWRFIRIDTSCVCTLTIKRGR
B1: the “AKT 1/2/3-P (T308), differentiated SH-SY5Y cells, EC50” value was 255 pM and the “TrkB-P (TrkB phosphorylation, AlphaLISA, differentiated SH-SY5Y cells), EC50” value amounted to 430 pM.
